Experimental data taken from PMC6391317.

How the values were obtained:
[1] = biological target: T1, thrombin (alpha-thrombin) (human, UniProt P00734;P00734 328-363;364-622); assay: capillary electrophoresis; simulated body plasma ionic buffer (SBP); exosite I; CE: 400 nM thrombin + 100 nM fluorescein-labeled aptamer in simulated body plasma ionic buffer (SBP; composition and pH not given in the material), 37 C for 2 m
[2] = biological target: T1, thrombin (alpha-thrombin); assay: capillary electrophoresis; simulated body plasma ionic buffer (SBP); exosite II; CE: 400 nM thrombin + 100 nM fluorescein-labeled aptamer in simulated body plasma ionic buffer (SBP; composition and pH not given in the material), 37 C for 2 m

GGTTGGTGTGGTTGG (structured_DNA) [HD1] gave a Kd [1] of 258 nM.

AGTCCGTGGTAGGGCAGGTTGGGGTGACT (structured_DNA) [HD22] gave a Kd [2] of 97.6 nM.
